# Test results reported in patent publication US20220048967A1 (published 2022).
# Numbering of substitutions follows the chain as printed. Numbered stars: 1 amine (or outer) side, 2 acyl side, 3 side chain; on linkers, the order of the positions; unused ones are H or OH. Square brackets hold non-standard residues; d marks the D form. Side chains are listed from the residue outwards. Ends that are not written are not given here. * marks the point of attachment. C20 diacid = O=C(O)CCCCCCCCCCCCCCCCCCC(=O)*; γGlu = O=C(O)[C@H](CCC(=O)[*:2])N[*:1]; αMeF = C[C@](N)(Cc1ccccc1)C(=O)O; AEEA = NCCOCCOCC(=O)O; Aib = CC(C)(N)C(=O)O
# T1: human GIP receptor (human, UniProt P48546 22-466)
# T1 sequence (looked up): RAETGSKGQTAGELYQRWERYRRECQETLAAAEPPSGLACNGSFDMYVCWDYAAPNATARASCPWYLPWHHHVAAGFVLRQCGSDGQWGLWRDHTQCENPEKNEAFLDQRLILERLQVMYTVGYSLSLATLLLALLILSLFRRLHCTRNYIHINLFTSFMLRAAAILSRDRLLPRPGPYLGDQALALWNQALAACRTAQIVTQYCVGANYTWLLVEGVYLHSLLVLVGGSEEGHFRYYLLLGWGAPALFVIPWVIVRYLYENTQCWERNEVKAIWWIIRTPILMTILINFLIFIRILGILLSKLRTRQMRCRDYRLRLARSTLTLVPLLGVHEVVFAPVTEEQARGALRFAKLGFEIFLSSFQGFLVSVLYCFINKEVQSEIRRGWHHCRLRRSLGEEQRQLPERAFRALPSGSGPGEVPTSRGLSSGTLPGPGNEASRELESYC
# B1: Example 89 (peptide)
# peptide: YXXGTFTSDYSILLDKKAQXAFIEYLIEGGPSSGAPPPS
# modifications: Aib2; Aad3; K17((2-[2-(2-Amino-ethoxy)-ethoxy]-acetyl)2-(γ-Glu)-CO-(CH2)18-CO2H); Aib20; C-terminal NH2
# B2: Example 91 (peptide)
# peptide: B1 peptide
# modifications: Aib2; γ-Glu3; K17((2-[2-(2-Amino-ethoxy)-ethoxy]-acetyl)2-(γ-Glu)-CO-(CH2)18-CO2H); Aib20; C-terminal NH2
# B3: Example 95 (peptide)
# peptide: YXEGTXTSDYSILLDKIAQXAFIEYLIKGG
# modifications: Aib2; αMeF6; Aib20; K28((2-[2-(2-Amino-ethoxy)-ethoxy]-acetyl)2-(γ-Glu)-CO-(CH2)18-CO2H); C-terminal NH2
# B4: Example 98 (peptide)
# peptide: B3 peptide with I17K, K28E
# modifications: Aib2; αMeF6; K17((2-[2-(2-Amino-ethoxy)-ethoxy]-acetyl)2-(γ-Glu)-CO-(CH2)18-CO2H); Aib20; C-terminal NH2
# B5: Example 92 (peptide)
# peptide: Y[Aib]EGT[αMeF]TSDK([AEEA-AEEA-γGlu-C20 diacid])SILLDKIAQ[Aib]AFIEYLIEGG-NH2
# modifications: N-terminus assumed
# SMILES: CC[C@H](C)[C@H](NC(=O)[C@H](CCCCN)NC(=O)[C@H](CC(=O)O)NC(=O)[C@H](CC(C)C)NC(=O)[C@H](CC(C)C)NC(=O)[C@@H](NC(=O)[C@H](CO)NC(=O)[C@H](CCCCNC(=O)COCCOCCNC(=O)COCCOCCNC(=O)CC[C@H](NC(=O)CCCCCCCCCCCCCCCCCCC(=O)O)C(=O)O)NC(=O)[C@H](CC(=O)O)NC(=O)[C@H](CO)NC(=O)[C@@H](NC(=O)[C@](C)(Cc1ccccc1)NC(=O)[C@@H](NC(=O)CNC(=O)[C@H](CCC(=O)O)NC(=O)C(C)(C)NC(=O)[C@@H](N)Cc1ccc(O)cc1)[C@@H](C)O)[C@@H](C)O)[C@@H](C)CC)C(=O)N[C@@H](C)C(=O)N[C@@H](CCC(N)=O)C(=O)NC(C)(C)C(=O)N[C@@H](C)C(=O)N[C@@H](Cc1ccccc1)C(=O)N[C@H](C(=O)N[C@@H](CCC(=O)O)C(=O)N[C@@H](Cc1ccc(O)cc1)C(=O)N[C@@H](CC(C)C)C(=O)N[C@H](C(=O)N[C@@H](CCC(=O)O)C(=O)NCC(=O)NCC(N)=O)[C@@H](C)CC)[C@@H](C)CC
# B6: Example 5 (peptide)
# peptide: YXEGTXTSDVSIXLDXKAQXEFIXXLIEGGPSSGAPPPS
# modifications: Aib2; αMeF(2F)6; αMeL13; Orn16; K17((2-[2-(2-Amino-ethoxy)-ethoxy]-acetyl)2-(γ-Glu)-CO-(CH2)16-CO2H); Aib20; D-Glu24; αMeY25; C-terminal NH2
# B7: Example 90 (peptide)
# peptide: Y[Aib]NGTFTSDYSILLDKK([AEEA-AEEA-γGlu-C20 diacid])AQ[Aib]AFIEYLIEGGPSSGAPPPS-NH2
# modifications: N-terminus assumed
# SMILES: CC[C@H](C)[C@H](NC(=O)[C@H](CC(C)C)NC(=O)[C@H](Cc1ccc(O)cc1)NC(=O)[C@H](CCC(=O)O)NC(=O)[C@@H](NC(=O)[C@H](Cc1ccccc1)NC(=O)[C@H](C)NC(=O)C(C)(C)NC(=O)[C@H](CCC(N)=O)NC(=O)[C@H](C)NC(=O)[C@H](CCCCNC(=O)COCCOCCNC(=O)COCCOCCNC(=O)CC[C@H](NC(=O)CCCCCCCCCCCCCCCCCCC(=O)O)C(=O)O)NC(=O)[C@H](CCCCN)NC(=O)[C@H](CC(=O)O)NC(=O)[C@H](CC(C)C)NC(=O)[C@H](CC(C)C)NC(=O)[C@@H](NC(=O)[C@H](CO)NC(=O)[C@H](Cc1ccc(O)cc1)NC(=O)[C@H](CC(=O)O)NC(=O)[C@H](CO)NC(=O)[C@@H](NC(=O)[C@H](Cc1ccccc1)NC(=O)[C@@H](NC(=O)CNC(=O)[C@H](CC(N)=O)NC(=O)C(C)(C)NC(=O)[C@@H](N)Cc1ccc(O)cc1)[C@@H](C)O)[C@@H](C)O)[C@@H](C)CC)[C@@H](C)CC)C(=O)N[C@@H](CCC(=O)O)C(=O)NCC(=O)NCC(=O)N1CCC[C@H]1C(=O)N[C@@H](CO)C(=O)N[C@@H](CO)C(=O)NCC(=O)N[C@@H](C)C(=O)N1CCC[C@H]1C(=O)N1CCC[C@H]1C(=O)N1CCC[C@H]1C(=O)N[C@@H](CO)C(N)=O
# B8: Example 94 (peptide)
# peptide: B3 peptide with A21K, K28E
# modifications: Aib2; αMeF6; Aib20; K21((2-[2-(2-Amino-ethoxy)-ethoxy]-acetyl)2-(γ-Glu)-CO-(CH2)18-CO2H); C-terminal NH2
# B9: Example 88 (peptide)
# peptide: YPEGTFTSDYSILLDKK([AEEA-AEEA-γGlu-C20 diacid])AQ[Aib]AFIEYLIEGGPSSGAPPPS-NH2
# modifications: N-terminus assumed
# SMILES: CC[C@H](C)[C@H](NC(=O)[C@H](CC(C)C)NC(=O)[C@H](Cc1ccc(O)cc1)NC(=O)[C@H](CCC(=O)O)NC(=O)[C@@H](NC(=O)[C@H](Cc1ccccc1)NC(=O)[C@H](C)NC(=O)C(C)(C)NC(=O)[C@H](CCC(N)=O)NC(=O)[C@H](C)NC(=O)[C@H](CCCCNC(=O)COCCOCCNC(=O)COCCOCCNC(=O)CC[C@H](NC(=O)CCCCCCCCCCCCCCCCCCC(=O)O)C(=O)O)NC(=O)[C@H](CCCCN)NC(=O)[C@H](CC(=O)O)NC(=O)[C@H](CC(C)C)NC(=O)[C@H](CC(C)C)NC(=O)[C@@H](NC(=O)[C@H](CO)NC(=O)[C@H](Cc1ccc(O)cc1)NC(=O)[C@H](CC(=O)O)NC(=O)[C@H](CO)NC(=O)[C@@H](NC(=O)[C@H](Cc1ccccc1)NC(=O)[C@@H](NC(=O)CNC(=O)[C@H](CCC(=O)O)NC(=O)[C@@H]1CCCN1C(=O)[C@@H](N)Cc1ccc(O)cc1)[C@@H](C)O)[C@@H](C)O)[C@@H](C)CC)[C@@H](C)CC)C(=O)N[C@@H](CCC(=O)O)C(=O)NCC(=O)NCC(=O)N1CCC[C@H]1C(=O)N[C@@H](CO)C(=O)N[C@@H](CO)C(=O)NCC(=O)N[C@@H](C)C(=O)N1CCC[C@H]1C(=O)N1CCC[C@H]1C(=O)N1CCC[C@H]1C(=O)N[C@@H](CO)C(N)=O
# B10: Example 86 (peptide)
# peptide: Y[Aib]EGTFTSDYSILLDKK([AEEA-AEEA-γGlu-C20 diacid])AQ[Aib]AFIEYLIEAGPSSGAPPPS-NH2
# modifications: N-terminus assumed
# SMILES: CC[C@H](C)[C@H](NC(=O)[C@H](CC(C)C)NC(=O)[C@H](Cc1ccc(O)cc1)NC(=O)[C@H](CCC(=O)O)NC(=O)[C@@H](NC(=O)[C@H](Cc1ccccc1)NC(=O)[C@H](C)NC(=O)C(C)(C)NC(=O)[C@H](CCC(N)=O)NC(=O)[C@H](C)NC(=O)[C@H](CCCCNC(=O)COCCOCCNC(=O)COCCOCCNC(=O)CC[C@H](NC(=O)CCCCCCCCCCCCCCCCCCC(=O)O)C(=O)O)NC(=O)[C@H](CCCCN)NC(=O)[C@H](CC(=O)O)NC(=O)[C@H](CC(C)C)NC(=O)[C@H](CC(C)C)NC(=O)[C@@H](NC(=O)[C@H](CO)NC(=O)[C@H](Cc1ccc(O)cc1)NC(=O)[C@H](CC(=O)O)NC(=O)[C@H](CO)NC(=O)[C@@H](NC(=O)[C@H](Cc1ccccc1)NC(=O)[C@@H](NC(=O)CNC(=O)[C@H](CCC(=O)O)NC(=O)C(C)(C)NC(=O)[C@@H](N)Cc1ccc(O)cc1)[C@@H](C)O)[C@@H](C)O)[C@@H](C)CC)[C@@H](C)CC)C(=O)N[C@@H](CCC(=O)O)C(=O)N[C@@H](C)C(=O)NCC(=O)N1CCC[C@H]1C(=O)N[C@@H](CO)C(=O)N[C@@H](CO)C(=O)NCC(=O)N[C@@H](C)C(=O)N1CCC[C@H]1C(=O)N1CCC[C@H]1C(=O)N1CCC[C@H]1C(=O)N[C@@H](CO)C(N)=O
# B11: Example 93 (peptide)
# peptide: Y[Aib]EGT[αMeF]TSDYSILK([AEEA-AEEA-γGlu-C20 diacid])DKIAQ[Aib]AFIEYLIEGG-NH2
# modifications: N-terminus assumed
# SMILES: CC[C@H](C)[C@H](NC(=O)[C@H](CCCCN)NC(=O)[C@H](CC(=O)O)NC(=O)[C@H](CCCCNC(=O)COCCOCCNC(=O)COCCOCCNC(=O)CC[C@H](NC(=O)CCCCCCCCCCCCCCCCCCC(=O)O)C(=O)O)NC(=O)[C@H](CC(C)C)NC(=O)[C@@H](NC(=O)[C@H](CO)NC(=O)[C@H](Cc1ccc(O)cc1)NC(=O)[C@H](CC(=O)O)NC(=O)[C@H](CO)NC(=O)[C@@H](NC(=O)[C@](C)(Cc1ccccc1)NC(=O)[C@@H](NC(=O)CNC(=O)[C@H](CCC(=O)O)NC(=O)C(C)(C)NC(=O)[C@@H](N)Cc1ccc(O)cc1)[C@@H](C)O)[C@@H](C)O)[C@@H](C)CC)C(=O)N[C@@H](C)C(=O)N[C@@H](CCC(N)=O)C(=O)NC(C)(C)C(=O)N[C@@H](C)C(=O)N[C@@H](Cc1ccccc1)C(=O)N[C@H](C(=O)N[C@@H](CCC(=O)O)C(=O)N[C@@H](Cc1ccc(O)cc1)C(=O)N[C@@H](CC(C)C)C(=O)N[C@H](C(=O)N[C@@H](CCC(=O)O)C(=O)NCC(=O)NCC(N)=O)[C@@H](C)CC)[C@@H](C)CC
# Biological target: human GLP-1 receptor (human, UniProt P43220 24-463)
# Experiment: cell-based or functional assay
Binder,hGLP1R cAMP EC50 ratio,hGLP1R cAMP Rel EC50
B1,0.175,0.335 nM
B2,< 1.08e-05,> 5000 nM
B3,0.0576,1.01 nM
B4,0.384,0.157 nM
B5,0.258,0.257 nM
B6,2.69,0.0164 nM
B7,0.11,0.532 nM
B8,0.196,0.338 nM
B9,0.0918,0.64 nM
B10,0.243,0.271 nM
B11,0.498,0.115 nM

# Biological target: T1, human GIP receptor
# Experiment: cell-based or functional assay
Binder,hGIPR cAMP EC50 ratio,hGIPR cAMP Rel EC50
B1,1.57,0.119 nM
B2,0.0103,19.2 nM
B3,0.145,1.17 nM
B4,2.43,0.0718 nM
B5,0.546,0.338 nM
B6,6.27,0.0309 nM
B7,5.17,0.0361 nM
B8,0.434,0.425 nM
B9,0.392,0.475 nM
B10,3.29,0.0452 nM
B11,0.956,0.185 nM
